Experimental findings from PMC4728409 are described below.

Assay [1] concerns the target phosphorylated pS674 peptide of UHRF1 (human (RefSeq NP_037414.3)). Put plainly: SPR; BIAcore; biotinylated peptides on a streptavidin chip (about 250 RU); GST-BRCA1-BRCT as analyte, 39 nM to 2.5 μM (legend: 17 nM to 2.5 μM), 30 μl min^-1; 150 mM NaCl, 0.005% Polysorbate 20, 10 mM HEPES pH 7.4, 1 mM PMSF. (In SPR one partner is held on a chip, and binding of the other changes the refractive index at the surface.)

Assay [2] has as its target BRCA1 (UniProt P38398). Put plainly: co-immunoprecipitation. The settings on record: reference: wild type; sites S674.
Assay [3] deals with BRCA1 BRCT domain (UniProt P38398). Put plainly: far-Western, GST-BRCT overlay on His-UHRF1. The settings on record: reference: kinase-treated His-UHRF1 WT; sites S674.

For the substance “GST-BRCT (wild type) domain of BRCA1 (domain or fragment)”, the Kd (commonly a measure of binding affinity in units of concentration) in assay [1] came to 356 nM. Take UHRF1 (from UniProt Q96T88-2) S674A: the “binding against the reference” value in assay [2] was “weaker”.

For the substance “UHRF1 (from UniProt Q96T88-2) kinase-treated His-UHRF1 S674A”, in assay [3], the “binding against the reference” value was “lost”.
